Laboratory results reported in article PMC2148073.

Assays:
[1] = target: native syntaxin 1A from PC12 cells (rat (endogenous in PC12)) (UniProt P32851)
[2] = target: native syntaxin 1A from PC12 cells (rat (endogenous in PC12)) (UniProt P32851); remark: listed apart in the source

UniProt P32851, sequence (P32851 whole entry): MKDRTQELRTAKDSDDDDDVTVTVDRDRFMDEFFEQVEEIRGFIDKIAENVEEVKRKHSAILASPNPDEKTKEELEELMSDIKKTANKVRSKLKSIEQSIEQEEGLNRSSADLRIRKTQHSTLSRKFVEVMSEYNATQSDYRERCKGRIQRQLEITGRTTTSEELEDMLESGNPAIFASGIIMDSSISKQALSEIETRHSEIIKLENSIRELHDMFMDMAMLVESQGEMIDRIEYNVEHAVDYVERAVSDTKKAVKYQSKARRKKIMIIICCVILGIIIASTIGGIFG

- inhibition of Ca2+-triggered [3H]-NE release from cracked PC12 cells by 10–20 µM GST-fusion peptide present during priming and triggering; pair blocked: endogenous Kv2.1 with syntaxin [1]: 60%
- half-maximal inhibition of Ca2+-triggered [3H]-NE release from cracked PC12 cells (dose response of GST-Kv2.1-C1); pair blocked: endogenous Kv2.1 with syntaxin [2]: 2 µM
- inhibition of Ca2+-triggered [3H]-NE release from cracked PC12 cells at increasing concentrations of GST-Kv2.1-C1 (from 10 nM; saturation at 5 µM); pair blocked: endogenous Kv2.1 with syntaxin [2]: 57%
Substance: GST-fused Kv2.1-C1 protein (domain or fragment)
